Measurements as given in the supplement of paper PMC9170038.

Experiments:
MS2 coat protein [1] = assay: apparent KD of MS2 coat protein; designed switch direction (-1 OFF switch, 1 ON switch): -1; higher = weaker reporter binding; conditions: Eterna round: R98
Description: (§1)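 RNA-MaP: designed FMN/MS2 RNA switches (84 nt design region) are transcribed on-chip within common flanks and titrated with SNAP-549-labelled MS2 coat protein (about 1-3000 nM) in 100 mM Tris pH 7.5, 80 mM KCl, 4 mM MgCl2, without or with 200 uM FMN. Median apparent KD per design; activation ratio = KD,OFF / KD,ON.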

MS2 coat protein [2] = assay: apparent KD of MS2 coat protein; designed switch direction (-1 OFF switch, 1 ON switch): 1; higher = weaker reporter binding; conditions: Eterna round: R98
Description: as §1

MS2 coat protein [3] = assay: apparent KD of MS2 coat protein; higher = weaker reporter binding; conditions: Eterna round: R101
Description: as §1

Sequence	apparent KD of MS2 coat protein (MS2 coat protein [2]; input ligand: FMN 200 uM)	apparent KD of MS2 coat protein (MS2 coat protein [2]; input ligand: none)	apparent KD of MS2 coat protein (MS2 coat protein [3]; input ligand: FMN 200 uM)	apparent KD of MS2 coat protein (MS2 coat protein [3]; input ligand: none)	further results
CGCUCGCCGAGAGGAUAUGCAUUGGUGGGCGGUCCUGAACAUGAGGAUCACCCAUGUAUCAGUAAGCAGAAGGCUUGGUAGACG [Usesreed]					apparent KD of MS2 coat protein (MS2 coat protein [1]; input ligand: FMN 200 uM): 16.5 nM; apparent KD of MS2 coat protein (MS2 coat protein [1]; input ligand: none): 20.1 nM
UCCGCUAUCGCAGGAUAUUACAUGGGAAAGAAUACAUGAGGAUCACCCAUGUAAAAGAUCAUAAAUAAGAAGGGCGAUAGCGGA [Lame State 8 - Jieux - Same State NG 2]	123 nM	654 nM			
GGUUGUUACGCAGGAUAUUGCCAACAGGCAGUAGGAUAUCCGAAAGGAGAAGGACCGCCAACAGGCGAGAAGGGCGGGUUAACC [pwkr exNG2 2xF7 2FMN.10.4]					apparent KD of MS2 coat protein (MS2 coat protein [1]; input ligand: FMN 200 uM): 48.3 nM; apparent KD of MS2 coat protein (MS2 coat protein [1]; input ligand: none): 35.4 nM
UUUUUUUUUUUUUACGCUUUGCGACGAGAAGGUACACAUGAGGAUCACCCAUGUCGAUUGGGAGGUAAGGAUAUUGGAUUGCGU [Inverted Small Loop Same State NG 3 Solution, Uracil-heavy] (puzzle (switch architecture): Inverted Small Loop Same State NG 3)			0.483 nM	18.4 nM	
GGUGUUAACACAGGAUAUCUGCGUAAACAGCGCGGAGAAGGGUGGGUGACCAAGGACACAUGAGGAUCACCCAUGUACCCUUAA [Timadier] (puzzle (switch architecture): Same State NG 1)			184 nM	72.7 nM	
CGAGACACUUGAGGAUAUGCUCAGGAAUACUGAGCAGAAGGCAGGGAAACCUGAGGAUCACCCAGGUAACUGGAAAGUCUCGAA [Same State NG1 - A3C, U17G Submission 5A]	19 nM	29.2 nM			
UAAAUAAAUCCUAGAGGAUCACCCUAGGAUAUCACCGUCGAGGUGCCAUAAUGGCACCUCGACGGUGAGAAGGAGGGUAAUAAA [#SharedSequence - SLExNG3: 1-1] (puzzle (switch architecture): Small Loop Exclusion NG 3)			29.3 nM	13.8 nM	
AUAAUAACUUGAGGAUAUCGAGUGGAAUACACUCGAGAAGGCAGGGAAACCUGAGGAUCACCCAGGUAAAUAAUAAUAAUAAUA [Same State NG1 - A3C, U17G Submission 1C]	22.7 nM	21.3 nM			
GCCAUCGUAUGAGGAUAUGGCACCGAAACGGUGCCAGAAGGCAUGUCAAUAGACAUGAGGAUCACCCAUGUAUUAUCGAUGGCA [MatMod 1 - Jieux - Same State NG 1]	46.9 nM	469 nM			
GUCACGGUUAAUUCCGUGACGCGCAAACCUUGAGGAUCACCCAAGGAUAUCGACGUCAAUGACGUCGAGAAGGUGGUUGAGCGC [#SharedSequence] (puzzle (switch architecture): Exclusion NG 3)			95.6 nM		
UAAAUAAAUCCUAGAGGAUCACCCUAGGAUAUGAGGCUGCACCUCGGAUAAUCCGAGGUGCAGCCUCAGAAGGAGGUUGAUAAA [#SharedSequence - SLExNG3: 6-2] (puzzle (switch architecture): Small Loop Exclusion NG 3)			11.8 nM	10.5 nM	
CCAAUAUAGUGAGGAUAUGCACAGGAUCACCGUGUAGAAGGCAUCAGGUAGAAGGUGCAGAGGAUCACCCUGUAAGGAUAUACA [pwkr2 ssNG1 DX.7]	129 nM	406 nM			
GCAAAUGGGCGAGGAUAUGGGACGGGCCUAAACAGGGCACAUGAGGAUCACCCAUGUCACACGACCCAGAAGGCGCUAAGAACG [Bemave]	144 nM	399 nM			
GCCAACUUAUGAGGAUAUGGCACCUUAUUGGUGCCAGAAGGCAUGUCAAUUGACAUGAGGAUCACCCAUGUAUUAUAGUUGGCA [Fiskers NG1ss - 20 m2]	112 nM	724 nM			
GGUCGACCUCAAGGAUAUGGACUGCAAAGCAGUCCAGAAGGUGAGGAUCACCCAUCUACGGUCAGGAAACUGACCGAUCGACCA [#SharedSequence - ExNG1-6] (puzzle (switch architecture): Exclusion NG 1)			914 nM	308 nM	
AAAUAAAUCGAAGGAUAUGACCCUCGAGGUGACUAAAAGUCACCUCGAGGGUCAGAAGGUCGAGGAUCACCCGAUCUAAAUAAA [#SharedSequence SLExNG1: 2-1] (puzzle (switch architecture): Small Loop Exclusion NG 1)			259 nM	16.2 nM	
UUCAAAGGGUGAGGAUAUGCACAGGAUCACCGUGUAGAAGGCAUCAGGUAGAAGGUGCAGAGGAUCACCCUGUAAGGAUAUAUC [pwkr2 ssNG1 DX.15]	719 nM	1020 nM			

Sequence	apparent KD of MS2 coat protein (MS2 coat protein [2]; input ligand: FMN 200 uM)	apparent KD of MS2 coat protein (MS2 coat protein [2]; input ligand: none)	apparent KD of MS2 coat protein (MS2 coat protein [3]; input ligand: FMN 200 uM)	apparent KD of MS2 coat protein (MS2 coat protein [3]; input ligand: none)	further results
GUCAGCUCGUGAGGAUAUACAUCACUGCUUCGGCAGUGUAUUAAGAUAACAUGAGGAUCACCCAUGUAGAAGGCACGAGCUGAU [#MS2NeighbourBaseDeletion - ENG2/2-A2] (puzzle (switch architecture): Exclusion NG 2)			8.5 nM	5.49 nM	
GUAGCAUACCGAGGAUAUUCAUACCGGAAACGGACAUGAGGAUCACCCAUGUAAAUUCUAAAUUGGGAGAAGGCGGAAUGCUAC [Xeonanis 75 6]	46.6 nM	410 nM			
UAGAUAUGGUGAGGAUAUGCAAAGGAUCACCUUGUAGAAGGCAUCAGGGUAGAAGGUGCAAGGAUCACCUGUAAGGAUAUAUCC [pwkr2 ssNG1 DX.32]	448 nM	1670 nM			
GGAUCGCUUGGAGGAUAUCCAACUAUCCUAGUUGGAGAAGGCCAAGCUACAGAGCUAAGCUUGGAAGUCACUUCGGAUCCACAC [pwkr ssNG1 F9.4.4]	39.2 nM	21.7 nM			
AAUAAUCAGGUAGGAUAUGCUCAGGAAUACUGAGCAGAAGGACUAGAAACCUGAGGAUCACCCAGGUAACUGGACCGGAAACGG [Same State NG1 - A3C, U17G Submission 6C]	42.3 nM	81.1 nM			
CACAGGGAUUCAGGAUAUAUUAGCCGAGGCCGCGUAGAAGGGAAAUCCUGACAUGAGGAUCACCCAUGUUAACCCACCUUCCAU [Fingerlickinggood#3]	22.9 nM	27.3 nM			
GCUGUCGCGUGAGGAUAUGGUCGGCAGUGCUGACCAGAAGGCAUGUCGAUAGACAUGAGGAUCACCCAUGUGGUUAGGGCGGCU [salish99_SSNG1_R02_015]	464 nM	491 nM			
AAAGAUUUUCAAGGAUAUGACUCCGAAACGGAGUCAGAAGGUGAGGAUCACCCACCUAGCUCAGCGUCGAAAGACGCUGAGCAA [#SharedSequence ExNG1 - 27] (puzzle (switch architecture): Exclusion NG 1)			103 nM	13.5 nM	
AUCAGCUCGUCAGGAUAUACGUCACUGCGUCAGCAGUGUGGUAAGAUCACAUGAGGAUCACCCAUGUAGAAGGGACGAGCUGAU [#MiniMS2Turnoff - Ex NG2 #82] (puzzle (switch architecture): Exclusion NG 2)			273 nM	13.7 nM	
ACAGGUCGUGAGAAGGCGUGUGGCACCGUCGAAAGACGGUGCAAUUAAAAUCUUCGAGGAUCACCCGAGGAUAUCACGACCUGA [#SharedSequence - IExNG2: 19] (puzzle (switch architecture): Inverted Exclusion NG 2)			32.2 nM	12.2 nM	
UAAAUAAAUCCUAGAGGAUCACCCUAGGAUAUGAGGCUGCACCUCGGAUAAUCCGAGGUGCAGCCUCAGAAGGAGGAAAAUAAA [#SharedSequence - SLExNG3: 4-2] (puzzle (switch architecture): Small Loop Exclusion NG 3)			7.71 nM	8.16 nM	
AAUAAUCUUUAAGGAUAUGACUCCGAAACGGAGUCAGAAGGUGAGGAUCACCCAUCUAGCUCAGGGUCGAAAGACCCUGAGCAA [#SharedSequence - ExNG1-11] (puzzle (switch architecture): Exclusion NG 1)			101 nM	49.6 nM	
GGUUGACGACAAUUACAUGAGGAUCACCCAUGUUGUGGGAUGCAGGAUAUGUGGUAUAUUAAUUAACAGAAGGGCAAUAAUUUU [JR_SSNG3_Sub062]	51 nM	33.8 nM			
CGGGAUACGAAGGGCGAAAGCCCACAUGAGGAUCACCCAUGUAGAAGGCGGGCCGCAACGCGGCCCGAGGAUAUACAGUAUCCA [#my 5th design] (puzzle (switch architecture): Inverted Exclusion NG 3)			10.5 nM	5.72 nM	
GCAGAAGGUGCGGAGGAUCACCCUGUAAGGAUAUGCAUUAGCAAGGAUAUACAGAGGAUCACCCUGUAGAAGGUGCACUUCUGA [pwkr2 ssNG3 DX.8]	2120 nM	850 nM			
AGACCUGCUCAGAAGGCGGGUGCGAGGCUGGAAACAGCCUCGAAUUAAAAUCUUCGAGGAUCACCCGAGGAUAUGAGCAGGUCA [#SharedSequence - IExNG2: 16] (puzzle (switch architecture): Inverted Exclusion NG 2)			19 nM	54.2 nM	
UCACUCACGUCAGGAUAUGGAUCGGAAAACGAUCCAGAAGGGACCUGCAAACUUGAGGAUCACCCAGGUUCCAAUAACGAGUGA [SameSame 12 - Jieux - Same State NG 1]	194 nM	307 nM			
